Test results taken from doi:10.1101/2021.10.18.464377.

What was measured:
[1] = biological target: Synaptotagmin 2 wild type expressed in HEK 293 or PC12 cells (UniProt P29101); assay: immunostaining of cells or tissue
[2] = biological target: Synaptotagmin 1 wild type expressed in HEK 293 cells (UniProt P21707); assay: immunostaining of cells or tissue
Chain of UniProt P21707 (P21707 whole entry): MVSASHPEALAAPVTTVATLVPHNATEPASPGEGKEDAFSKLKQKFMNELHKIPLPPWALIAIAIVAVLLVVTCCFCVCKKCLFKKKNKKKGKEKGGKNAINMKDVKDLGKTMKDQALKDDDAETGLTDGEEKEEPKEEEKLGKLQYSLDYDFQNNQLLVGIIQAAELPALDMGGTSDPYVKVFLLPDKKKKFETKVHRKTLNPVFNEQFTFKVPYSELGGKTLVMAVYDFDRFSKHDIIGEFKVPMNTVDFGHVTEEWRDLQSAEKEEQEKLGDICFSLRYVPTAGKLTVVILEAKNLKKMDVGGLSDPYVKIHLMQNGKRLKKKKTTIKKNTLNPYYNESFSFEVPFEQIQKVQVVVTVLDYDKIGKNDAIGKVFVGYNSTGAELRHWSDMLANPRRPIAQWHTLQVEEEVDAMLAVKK

Chain of UniProt P29101 (P29101 whole entry): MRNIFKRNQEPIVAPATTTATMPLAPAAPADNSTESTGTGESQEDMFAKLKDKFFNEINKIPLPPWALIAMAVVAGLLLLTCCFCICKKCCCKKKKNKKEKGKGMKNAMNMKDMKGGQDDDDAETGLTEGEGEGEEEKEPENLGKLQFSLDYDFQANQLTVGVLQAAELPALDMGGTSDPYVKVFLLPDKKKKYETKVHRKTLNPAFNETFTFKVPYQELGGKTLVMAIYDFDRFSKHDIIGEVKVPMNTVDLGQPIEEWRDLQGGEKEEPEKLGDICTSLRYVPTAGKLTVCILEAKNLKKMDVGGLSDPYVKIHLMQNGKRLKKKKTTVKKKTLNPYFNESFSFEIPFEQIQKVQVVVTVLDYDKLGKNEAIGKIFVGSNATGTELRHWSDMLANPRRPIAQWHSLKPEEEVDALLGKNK

Substance: Botulinum neurotoxin serotype B (B1 Okra strain) with non-toxic accessory proteins (complex)
- normalised BoNT/B immunoreactivity (IR, relative to WT) [1]: 1
- normalised BoNT/B immunoreactivity (IR, relative to WT) [2]: 1
